Reference: paper PMC4168064, “Cosuppression of the chloroplast localized molecular chaperone HSP90.5 impairs plant development and chloroplast biogenesis in Arabidopsis” (BMC Research Notes, 2014)

B1: C-terminally FLAG-tagged mature HSP90.5 (HSP90.5 62-780 FLAG), N-terminally His6-tagged (domain or fragment, Arabidopsis thaliana, UniProt Q9SIF2 62-780, looked up)
chain: DAAVAEKETTEEGSGEKFEYQAEVSRLLDLIVHSLYSHKEVFLRELVSNASDALDKLRFLSVTEPSLLGDGGDLEIRIKPDPDNGTITITDTGIGMTKEELIDCLGTIAQSGTSKFLKALKENKDLGADNGLIGQFGVGFYSAFLVAEKVVVSTKSPKSDKQYVWESVADSSSYLIREETDPDNILRRGTQITLYLREDDKYEFAESTRIKNLVKNYSQFVGFPIYTWQEKSRTIEVEEDEPVKEGEEGEPKKKKTTKTEKYWDWELANETKPLWMRNSKEVEKGEYNEFYKKAFNEFLDPLAHTHFTTEGEVEFRSILYIPGMGPLNNEDVTNPKTKNIRLYVKRVFISDDFDGELFPRYLSFVKGVVDSDDLPLNVSREILQESRIVRIMRKRLIRKTFDMIQEISESENKEDYKKFWENFGRFLKLGCIEDTGNHKRITPLLRFFSSKNEEELTSLDDYIENMGENQKAIYYLATDSLKSAKSAPFLEKLIQKDIEVLYLVEPIDEVAIQNLQTYKEKKFVDISKEDLELGDEDEVKDREAKQEFNLLCDWIKQQLGDKVAKVQVSNRLSSSPCVLVSGKFGWSANMERLMKAQALGDTSSLEFMRGRRILEINPDHPIIKDLNAACKNAPESTEATRVVDLLYDTAIISSGFTPDSPAELGNKIYEMMAMAVGGRWGRVEEEEESSTVNEGDDKSGETEVVEPSEVRAESDPWQD
notes: Arabidopsis thaliana chloroplast HSP90.5, predicted mature form, residues 62-780, amplified from pGWB402Ω-HSP90.5FLAG and cloned into pProEXHTb; also called HSP90.5FLAG; FLAG-tagged HSP90.5; source: E. coli, purified (Ni-NTA); not shown: FLAG, C-terminal, kept
B2: mature HSP90.5 (HSP90.5 62-780), N-terminally His6-tagged (domain or fragment, Arabidopsis thaliana, UniProt Q9SIF2 62-780, looked up)
chain: B1 chain
notes: Arabidopsis thaliana chloroplast HSP90.5, predicted mature form, residues D62-D780, cloned from an HSP90.5 cDNA into the p11 vector; also called wild type HSP90.5; AtHSP90.5; source: E. coli, purified (Ni-NTA)

Target: the molecule itself
Assay: SEC; Superdex 200 10/30; running buffer 25 mM Tris-HCl pH 8.0, 100 mM NaCl, 10% glycerol; 600 ug of HSP90.5 62-780 or 200 ug of FLAG-tagged HSP90.5 62-780 loaded; fractions analysed by SDS-PAGE

Row | Protein | stoichiometry N
1 | B1 | 2
2 | B2 | 2
